The values that follow come from patent publication US20090053241A1.

Experiment [1] addresses β1-3 (shorter version of PDGFRβ, D1D2D3). The experiment is described as follows: ELISA (OD450), panel 'PDGF-BB BINDING TO hPDGFRβ DELETIONS'; axis 'CO…ON (nM)', titrated species not stated.
The next experiment deals with 1β4α (PDGFRβ/α chimera). The experiment is described as follows: ELISA (OD450), panel 'PDGF-AA BINDING TO PDGFRβ/α CHIMERAS'; axis 'CO…ON (nM)', titrated species not stated.
In a further experiment the target is h5α (human) (UniProt P16234). The experiment is described as above.
h5α (human), sequence (P16234 24-524 limits assumed): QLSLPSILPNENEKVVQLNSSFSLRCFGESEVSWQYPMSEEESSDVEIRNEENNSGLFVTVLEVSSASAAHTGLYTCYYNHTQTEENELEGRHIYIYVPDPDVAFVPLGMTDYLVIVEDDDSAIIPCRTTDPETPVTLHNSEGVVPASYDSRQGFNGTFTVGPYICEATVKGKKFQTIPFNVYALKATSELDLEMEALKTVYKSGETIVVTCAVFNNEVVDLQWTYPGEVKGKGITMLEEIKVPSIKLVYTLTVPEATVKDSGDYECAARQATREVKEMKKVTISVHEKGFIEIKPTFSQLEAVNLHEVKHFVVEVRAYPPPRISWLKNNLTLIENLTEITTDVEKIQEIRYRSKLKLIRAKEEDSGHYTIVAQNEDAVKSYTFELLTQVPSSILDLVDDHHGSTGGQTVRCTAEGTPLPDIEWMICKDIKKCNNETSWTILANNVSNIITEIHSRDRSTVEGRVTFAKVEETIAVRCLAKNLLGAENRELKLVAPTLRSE

1β4α (PDGFRβ/α chimera), sequence (P16234 other isoform, or with tags, fused parts or gaps mutant): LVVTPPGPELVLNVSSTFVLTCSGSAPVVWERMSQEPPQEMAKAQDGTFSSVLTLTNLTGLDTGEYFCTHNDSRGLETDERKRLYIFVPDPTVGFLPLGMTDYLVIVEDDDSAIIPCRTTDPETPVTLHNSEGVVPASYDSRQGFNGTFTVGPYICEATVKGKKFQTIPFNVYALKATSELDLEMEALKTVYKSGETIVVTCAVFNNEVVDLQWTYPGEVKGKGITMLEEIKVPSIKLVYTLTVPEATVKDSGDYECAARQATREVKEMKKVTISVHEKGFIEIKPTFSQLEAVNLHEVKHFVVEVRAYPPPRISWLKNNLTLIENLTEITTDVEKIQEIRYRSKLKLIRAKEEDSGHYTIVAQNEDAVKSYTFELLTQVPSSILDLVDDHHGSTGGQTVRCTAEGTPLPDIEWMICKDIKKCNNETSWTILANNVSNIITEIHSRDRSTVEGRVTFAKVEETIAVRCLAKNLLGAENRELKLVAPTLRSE
PDGF-BB (ligand), sequence (P01127 82-190): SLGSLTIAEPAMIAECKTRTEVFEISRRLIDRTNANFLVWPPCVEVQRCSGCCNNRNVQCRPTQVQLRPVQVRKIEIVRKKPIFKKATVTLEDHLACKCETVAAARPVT

By EC50 (read off the curve) is commonly meant the concentration needed to bring the measured effect to its halfway point. Read a high EC50 (read off the curve) as weaker potency. In turn, PDGF-BB (ligand) showed an EC50 (read off the curve) in experiment [1] of 60 pM. Regarding PDGF-AA (ligand), the EC50 (read off the curve) with 1β4α (PDGFRβ/α chimera) was 50 pM; with h5α (human), 20 pM.
